The values below come from US20050032689A1, “Methods for treatment or diagnosis of disease or disorders associated with an APB domain” (New York University, priority 1994, published 2005).

The test system of the assay is EGF receptor mutants (Y5F, CD196). Description: Binding of GST-Shc 1-209 to EGF receptor autophosphorylation mutants from NIH 3T3 lysates. The following applies: all tyrosine-phosphorylated residues mutated to phenylalanine or carboxyl terminus deleted. Here is the method:
FIG. 3. Association of GST-Shc 1-209 with mutant forms of the EGF receptor. NIH 3T3 cells overexpressing various EGF receptor mutants were stimulated with EGF (200 ng/ml) for 3 min and then lysed. Wild type EGF receptor (W.T.) contains all five known EGF receptor autophosphorylation sites, Y2F has Tyr-992 and Tyr-1068 mutated to phenylalanine, Y5F has all five known EGF receptor autophosphorylation sites mutated to phenylalanine, and CD196 has a carboxyterminal deletion of 196 amino acids deleting all known autophosphorylation sites (Li, N., et al. (1994) Oncogene (In Press). Beads containing GST-Shc 1-209 fusion protein (3 μg) were added to the various lysates containing equal amounts of the receptor (left panels) or the lysates were immunoprecipitated with the anti-EGF receptor (EGFR) antibody (mAb108) (right panels). All samples were incubated at 4° C. for 90 min. The bound proteins were then washed, subjected to SDS-PAGE and transferred to nitrocellulose. […]
Binding Studies—GST fusion proteins were expressed using standard techniques (Ausubel, F. M., et al. Current Protocols in Molecular Biology, (1992) Wiley Interscience, New York). Protein concentration was determined by SDS-PAGE (polyacrylamide gel electrophoresis) using bovine serum albumin as a standard. […]

B1: Shc 1-209: Shc amino terminus, first 209 amino acids of murine p52Shc, generated as a GST fusion protein (protein, UniProt P98083 1-209, looked up, fragment)
chain: MDLLPPKPKYNPLRNESLSSLEEGASGSTPPEELPSPSASSLGPILPPLPGDDSPTTLCSFFPRMSNLKLANPAGGRLGPKGEPGKAAEDGEGSAGAALRDSGLLPLLQDMNKLSGGGGRRTRVEGGQLGGEEWTRHGSFVNKPTRGWLHPNDKVMGPGVSYLVRYMGCVEVLQSMRALDFNTRTQVTREAISLVCEAVPGAKGATRRR
modifications: GST fusion
notes: Shc amino terminus, first 209 amino acids of murine p52Shc, generated as a GST fusion protein
Take B1: the “binding to EGF receptor mutants lacking autophosphorylation sites” value is given as “completely eliminated Shc 1-209 binding”.
